Molecular target: the molecule itself
Test: cryo-EM structure; native BUNV RNPs purified from virions, TNE with 25 mM NaCl; cryo-ET sub-tomogram average (20 Å) used as reference for a single-particle average with helical symmetry at 13 Å; 'split' NP from PDB 3ZLA fitted flexibly by molecular dynamics (MDFF)

B1: Bunyamwera virus (BUNV) nucleocapsid protein (NP) (natural protein)
chain: MIELEFHDVAANTSSTFDPEVAYANFKRVHTTGLSYDHIRIFYIKGREIKTSLAKRSEWEVTLNLGGWKITVYNTNFPGNRNNPVPDDGLTLHRLSGFLARYLLEKMLKVSEPEKLIIKSKIINPLAEKNGITWNDGEEVYLSFFPGSEMFLGTFRFYPLAIGIYKVQRKEMEPKYLEKTMRQRYMGLEAATWTVSKLTEVQSALTVVSSLGWKKTNVSAAARDFLAKFGINM
notes: Nucleocapsid protein (NP) of Bunyamwera virus, as it stands in native ribonucleoproteins (RNPs) with the genomic RNA; NP stands in the RNP as a helical polymer wrapped around viral genomic RNA (S, M, L segments); about 3.7 NP per helical turn; The number of copies depends on the segment; also called BUNV NP; nucleoprotein; source: native RNPs purified from BUNV virions propagated in BHK-21 cells …
B1: binds.

— paper doi:10.1101/2021.10.27.466080, “The structure of a native orthobunyavirus ribonucleoprotein reveals a key role for viral RNA in maintaining its helical architecture” (bioRxiv, 2021)
